US20260176352A1 (BIRD ROCK BIO, published 2026)

How the values were obtained:
[1] = target: T1, native full length human CB1 receptor (cannabinoid 1 receptor) (human, UniProt P21554 1-472); experiment: cell-based or functional assay
mouse CB1 = target: T2, mouse CB1 (mouse, UniProt P47746 1-473); experiment: flow cytometry on cells expressing the target
T2 construct: whole, on cells; also called TRexCHO Mouse CB1

human CB2 = target: T3, human CB2 (human, UniProt P34972 1-360); experiment: flow cytometry on cells expressing the target
T3 construct: whole, on cells; also called TRexCHO Human CB2

[2] = target: 5HT2B (expression cell line) (Homo sapiens (Human), UniProt P41595 1-481); experiment: flow cytometry on cells expressing the target
[3] = target: T1, native full length human CB1 receptor …; experiment: flow cytometry, Fab on TRex-CHO human CB1 cells
Description: Three-fold serial dilutions from 3 μM to 0.1 μM were prepared.

T1 sequence (P21554 whole entry): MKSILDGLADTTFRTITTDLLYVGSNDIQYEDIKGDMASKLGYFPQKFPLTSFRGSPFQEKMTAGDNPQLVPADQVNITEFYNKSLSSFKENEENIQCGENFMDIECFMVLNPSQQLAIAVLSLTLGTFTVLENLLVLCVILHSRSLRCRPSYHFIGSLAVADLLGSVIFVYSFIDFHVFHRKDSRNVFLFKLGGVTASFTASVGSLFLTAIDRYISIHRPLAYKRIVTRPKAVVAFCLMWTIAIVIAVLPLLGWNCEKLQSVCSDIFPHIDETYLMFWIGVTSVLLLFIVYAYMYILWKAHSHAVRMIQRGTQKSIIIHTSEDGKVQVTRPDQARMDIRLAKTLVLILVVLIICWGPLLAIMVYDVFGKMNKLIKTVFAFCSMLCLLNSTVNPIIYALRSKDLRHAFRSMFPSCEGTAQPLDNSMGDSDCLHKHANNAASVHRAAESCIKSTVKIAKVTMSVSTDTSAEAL
Chain of 5HT2B (expression cell line) (P41595 whole entry): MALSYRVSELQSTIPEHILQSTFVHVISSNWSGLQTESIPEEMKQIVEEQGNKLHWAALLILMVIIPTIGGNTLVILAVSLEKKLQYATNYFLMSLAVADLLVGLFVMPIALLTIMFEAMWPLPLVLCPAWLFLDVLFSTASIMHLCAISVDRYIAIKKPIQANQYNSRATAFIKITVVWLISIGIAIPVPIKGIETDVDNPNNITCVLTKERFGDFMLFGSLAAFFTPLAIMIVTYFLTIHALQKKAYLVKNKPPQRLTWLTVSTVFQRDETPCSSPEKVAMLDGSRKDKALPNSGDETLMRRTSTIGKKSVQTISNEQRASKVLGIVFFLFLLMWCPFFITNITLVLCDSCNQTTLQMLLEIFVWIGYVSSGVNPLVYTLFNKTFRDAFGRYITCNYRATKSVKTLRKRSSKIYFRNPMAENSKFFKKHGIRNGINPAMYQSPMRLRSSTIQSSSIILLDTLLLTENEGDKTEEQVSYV
T2 sequence (P47746 whole entry): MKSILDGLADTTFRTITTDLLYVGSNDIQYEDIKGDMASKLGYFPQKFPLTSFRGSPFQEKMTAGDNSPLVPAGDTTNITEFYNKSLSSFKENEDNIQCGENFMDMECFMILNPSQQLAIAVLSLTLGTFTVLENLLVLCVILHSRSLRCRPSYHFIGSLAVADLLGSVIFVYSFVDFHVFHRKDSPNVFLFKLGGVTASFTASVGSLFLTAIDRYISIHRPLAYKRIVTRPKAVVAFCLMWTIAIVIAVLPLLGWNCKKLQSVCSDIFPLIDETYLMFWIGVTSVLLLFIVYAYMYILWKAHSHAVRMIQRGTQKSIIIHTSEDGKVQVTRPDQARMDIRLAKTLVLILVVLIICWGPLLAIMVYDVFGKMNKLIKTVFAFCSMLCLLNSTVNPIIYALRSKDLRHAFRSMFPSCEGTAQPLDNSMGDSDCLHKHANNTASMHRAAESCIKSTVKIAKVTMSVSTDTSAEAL
T3 sequence (P34972 whole entry): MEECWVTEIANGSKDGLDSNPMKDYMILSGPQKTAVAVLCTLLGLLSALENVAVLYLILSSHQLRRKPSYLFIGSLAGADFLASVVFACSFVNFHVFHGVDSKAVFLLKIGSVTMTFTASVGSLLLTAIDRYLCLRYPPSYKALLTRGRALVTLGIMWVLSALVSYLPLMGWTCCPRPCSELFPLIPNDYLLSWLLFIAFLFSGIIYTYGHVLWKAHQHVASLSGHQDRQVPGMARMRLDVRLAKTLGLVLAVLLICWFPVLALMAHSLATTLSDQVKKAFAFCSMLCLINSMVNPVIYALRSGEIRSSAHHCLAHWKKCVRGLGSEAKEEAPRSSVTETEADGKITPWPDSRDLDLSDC

B1: PA13R3-P1C4 Fab (Fab, V domains shown)
VH: EVQLQQSGAELVRPGVSVKISCKASGYEFSYYWMNWVKQRPGQGLEWIGQIYPGDGETKYNGKFKGKATLTADKSSNTAYMQLSSLTSEDSAVYFCARSHGNYLPYWGQGTLVTVSA
VL: DIVLTQSPAIMSASLGERVTMTCTASSSVSSSYLHWYQQKPGSSPKLWIYSTSNLASGVPARFSGSGSGTSYSLTISSMEAEDAATYYCHQYHRSPPTFGAGTKLELK
notes: also called Chimeric P1C4 Fab
IC50 cAMP assay [1]: 427 nM | binding result (mouse CB1): no binding (tested: 1 µM) | binding result (human CB2): no binding (tested: 1 µM) | binding result [2]: no binding (tested: 1 µM) | Kd [3]: 130 nM
